Here are results for three substances from publication PMC4477937.

Read-outs that look alike come from different tables or passages of the source. Bounds are passed on as bounds.

In test [1] the target is TNF-α (Homo sapiens) (UniProt P01375). The following applies: cited from earlier work.
Test [2] addresses TGF-β2 (Homo sapiens) (UniProt P61812). To be noted: cited from earlier work.
The target in test [3] is TGF-β1 (Homo sapiens) (UniProt P01137). To be noted: cited from earlier work.
For test [4], the target named is TNF-α (Homo sapiens) (UniProt P01375). The following applies: cited from earlier work. This is another data set of the same source.
Test [5] addresses TGF-β2 (Homo sapiens) (UniProt P61812). To be noted: cited from earlier work. The source holds these as a separate data set.
Test [6] deals with TGF-β1 (Homo sapiens) (UniProt P01137). The following applies: cited from earlier work. This is another data set of the same source.
Test [7] concerns the target lipoprotein receptors (on SH-SY5Y cells) (human (endogenous in SH-SY5Y)). Kind of test: flow cytometry on cells; SH-SY5Y cells detached with EDTA, in Hank's binding buffer, steps of 30 min at 4°C: RAP (8 μM) or buffer alone, then α2M (100 nM), rabbit anti-α2M, anti-rabbit IgG-FITC; viable cells gated by propidium iodide; α2M preparations stored at 4°C or -20°C for 10 days. For orientation: Flow cytometry measures light scatter and fluorescence of single cells or particles in a stream.

Chain of alpha-2-macroglobulin (native) (P01023 24-1474): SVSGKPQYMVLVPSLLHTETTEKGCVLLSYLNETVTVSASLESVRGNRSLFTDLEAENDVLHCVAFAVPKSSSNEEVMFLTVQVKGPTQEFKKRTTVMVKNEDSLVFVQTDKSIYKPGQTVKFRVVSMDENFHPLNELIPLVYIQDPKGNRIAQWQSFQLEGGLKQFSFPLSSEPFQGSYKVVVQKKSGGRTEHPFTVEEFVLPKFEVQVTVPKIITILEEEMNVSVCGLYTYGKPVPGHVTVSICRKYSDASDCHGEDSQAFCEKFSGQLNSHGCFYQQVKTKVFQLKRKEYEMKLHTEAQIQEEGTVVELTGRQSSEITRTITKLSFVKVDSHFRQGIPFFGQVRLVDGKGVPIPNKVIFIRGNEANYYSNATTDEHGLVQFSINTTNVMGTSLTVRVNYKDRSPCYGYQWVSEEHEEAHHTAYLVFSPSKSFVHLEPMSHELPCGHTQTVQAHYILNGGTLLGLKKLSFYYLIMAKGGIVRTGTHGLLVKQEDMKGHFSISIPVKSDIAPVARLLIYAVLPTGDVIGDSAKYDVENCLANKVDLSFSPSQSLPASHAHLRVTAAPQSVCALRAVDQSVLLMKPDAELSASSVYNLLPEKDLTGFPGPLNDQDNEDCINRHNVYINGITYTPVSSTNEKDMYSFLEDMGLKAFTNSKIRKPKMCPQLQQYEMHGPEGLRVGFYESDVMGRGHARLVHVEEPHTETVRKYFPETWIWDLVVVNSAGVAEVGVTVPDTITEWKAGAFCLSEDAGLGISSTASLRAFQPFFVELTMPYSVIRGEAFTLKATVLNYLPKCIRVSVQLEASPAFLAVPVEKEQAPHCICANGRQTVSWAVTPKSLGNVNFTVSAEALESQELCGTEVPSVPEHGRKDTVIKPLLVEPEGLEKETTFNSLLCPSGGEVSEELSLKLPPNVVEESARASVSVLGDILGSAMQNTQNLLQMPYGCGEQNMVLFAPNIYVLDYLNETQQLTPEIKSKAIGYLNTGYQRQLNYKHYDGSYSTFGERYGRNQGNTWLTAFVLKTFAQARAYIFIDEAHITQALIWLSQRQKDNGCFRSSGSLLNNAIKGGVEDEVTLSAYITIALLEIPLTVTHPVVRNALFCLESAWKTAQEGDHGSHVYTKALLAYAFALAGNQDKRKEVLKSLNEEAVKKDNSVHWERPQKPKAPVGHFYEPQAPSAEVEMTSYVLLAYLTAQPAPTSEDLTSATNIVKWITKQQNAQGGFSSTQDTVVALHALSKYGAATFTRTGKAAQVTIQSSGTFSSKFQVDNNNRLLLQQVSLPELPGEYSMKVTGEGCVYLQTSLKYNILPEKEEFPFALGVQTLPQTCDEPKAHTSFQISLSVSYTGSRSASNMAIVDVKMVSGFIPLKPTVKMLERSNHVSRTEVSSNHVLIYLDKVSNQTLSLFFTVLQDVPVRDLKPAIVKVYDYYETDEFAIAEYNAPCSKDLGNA
Chain of alpha-2-macroglobulin (transformed, α2M*) (P01023 24-1474): as above
Chain of glutathione-S-transferase-RAP (receptor-associated protein) (P30533 35-357): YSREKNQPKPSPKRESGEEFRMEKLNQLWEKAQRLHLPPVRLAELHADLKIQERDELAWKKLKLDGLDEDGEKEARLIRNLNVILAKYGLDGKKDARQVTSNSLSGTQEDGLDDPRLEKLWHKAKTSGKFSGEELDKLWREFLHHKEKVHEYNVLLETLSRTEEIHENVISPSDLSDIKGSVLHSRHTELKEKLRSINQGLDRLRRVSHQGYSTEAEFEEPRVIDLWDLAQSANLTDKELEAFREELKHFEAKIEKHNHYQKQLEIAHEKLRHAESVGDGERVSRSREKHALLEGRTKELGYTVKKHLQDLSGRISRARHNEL
Chain of TGF-β1 (Homo sapiens) (P01137 279-390): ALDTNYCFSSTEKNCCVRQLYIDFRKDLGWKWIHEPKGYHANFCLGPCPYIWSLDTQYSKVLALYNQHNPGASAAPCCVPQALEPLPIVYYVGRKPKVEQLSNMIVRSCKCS
Chain of TNF-α (Homo sapiens) (P01375 77-233): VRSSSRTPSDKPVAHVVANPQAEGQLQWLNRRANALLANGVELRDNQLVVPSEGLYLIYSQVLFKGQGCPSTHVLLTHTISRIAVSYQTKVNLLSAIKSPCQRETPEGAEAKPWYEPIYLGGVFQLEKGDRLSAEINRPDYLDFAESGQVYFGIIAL
Chain of TGF-β2 (Homo sapiens) (P61812 303-414): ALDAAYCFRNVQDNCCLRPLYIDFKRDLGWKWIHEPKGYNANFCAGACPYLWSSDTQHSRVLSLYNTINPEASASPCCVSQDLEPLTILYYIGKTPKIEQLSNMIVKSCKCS

Consider “alpha-2-macroglobulin (native) (from UniProt P01023)”, for which the equilibrium dissociation constant (Kd) is over 1270 nM with TNF-α (Homo sapiens) [1], 11 nM with TGF-β2 (Homo sapiens) [2] and 330 nM with TGF-β1 (Homo sapiens) [3].

As for “alpha-2-macroglobulin (transformed, α2M*) (from UniProt P01023)”, the results for the Kd with TNF-α (Homo sapiens) [4], with TGF-β2 (Homo sapiens) [5] and with TGF-β1 (Homo sapiens) [6] were over 750 nM, 13 nM and 80 nM, respectively.

Turning to “glutathione-S-transferase-RAP (receptor-associated protein) (from UniProt P30533 35-357) (natural protein)”, in test [7], the percent of the cell surface binding of the frozen α2M preparations inhibited by RAP lay within 20 to 50% and the percent of the cell surface binding of α2M inhibited by RAP (α2M in PBS/Az at -20°C; α2M in phosphate buffer with 100 mM NaCl at -20°C after rapid freezing) is 20%.

A word on the Kd: it is the concentration at which binding is half-saturated.
